Test results: paper PMC5862903

Tests used:
Test in all cases: ELISA
Conditions in all cases: 0.5 μg coated receptor, read off a plot
[1] = molecular target: Manduca sexta CR12 CAD fragment corresponding to cadherin repeat 12 (CAD-CR12)
[2] = molecular target: Manduca sexta alkaline phosphatase (ALP), recombinant
[3] = molecular target: Manduca sexta aminopeptidase N 1 (APN1), recombinant

Q: Which results are given for “Cry1Ab wild type toxin (from UniProt P0A370) G439D”?
A: response ([1]; toxin 6.25 nM, parent: est. 0.46): 0.12 ABS (490); response ([1]; toxin 12.5 nM, parent: est. 0.76): 0.2 ABS (490); response ([1]; toxin 25 nM, parent: est. 1.3): 0.45 ABS (490); response ([1]; toxin 50 nM, parent: est. 2.0): 0.76 ABS (490); response ([1]; toxin 100 nM, parent: est. 2.4): 1.2 ABS (490); response ([2]; toxin 6.25 nM, parent: est. 0.23): 0.03 ABS (490); response ([2]; toxin 12.5 nM, parent: est. 0.39): 0.05 ABS (490); response ([2]; toxin 25 nM, parent: est. 0.75): 0.13 ABS (490); response ([2]; toxin 50 nM, parent: est. 1.5): 0.34 ABS (490); response ([2]; toxin 100 nM, parent: est. 2.2): 0.68 ABS (490); response ([3]; toxin 6.25 nM, parent: est. 0.27): 0.09 ABS (490 nm); response ([3]; toxin 12.5 nM, parent: est. 0.48): 0.12 ABS (490 nm); response ([3]; toxin 25 nM, parent: est. 0.95): 0.27 ABS (490 nm); response ([3]; toxin 50 nM, parent: est. 1.6): 0.61 ABS (490 nm); response ([3]; toxin 100 nM, parent: est. 2.1): 1.1 ABS (490 nm)
